The record followed here is the nanobody polyreactivity screen of Harvey et al. (2022).

The series is described as follows: yeast display, Sf9 membrane polyspecificity reagent, FACS + sequencing; frameworks hold sequencing errors. In outline: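 In a synthetic yeast display library (Saccharomyces cerevisiae BJ5465), nanobody expression was induced with galactose for 36–48 hours. FACS gates were set low and high (top ~1%) using anti-HA fluorescence for expression and streptavidin fluorescence for binding of the Sf9 membrane reagent. Each polyreactivity label is drawn from the gate of origin.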
As to “QVQLVESGGGLVQAGGSLRISCAASGNIFSYYAMGWYRQAPGKERELVAAISSGGSTYYADSVKGRFTISRDNGMNTVYLQMNSLKPEDTAVYYCNKLAYVGRYGYWGQGTEVTVSS”, the “polyreactivity (PSR sort gate)” value was “high polyreactivity”.
As for “QVQLLESGGGLVQAGGSLRLSCAASGSPFYYYARGWYRQAPGKERELVARITYGGSRTYYADSVKGRFTISRDNAKYTVYLQMNSLKPEDTAVYYCNAGRVLYGYYLYDYWGQGTQLTVSS”, the “polyreactivity (PSR sort gate)” value is listed as “high polyreactivity”.
As for “QVQLVESGGGLVQPGGSLRLSSAASGITFPDYAMGWYRKAPGKERELVATITSSGGRTYYAHSVKGRFTISRDNAKNTVYLQMKSLKTEDTAVYYCAARRAYIRTLYYWGQGTQVTVSS”, the entry is “high polyreactivity”; as for “QLQRVESGGGLVQAGGSLRLSCAASGSIFNENAMGWYIQAPGKERELVAGIDSGGNTYYADSVKGRFTISRDNAKNTVYLQMISLKPEDTAVYYCAKRGVPVRASATFLFEFDYWGQGTQVPVSS”, “low polyreactivity”; as for “QVQLVESGGGLVQAGGSLRLSCAAYGITFDANAMGWYRQAPGKERELVARISSGGSTNYADSVKGRFTISRDNAKNTVYLQMNSLKPEDTAVYYCAAERIARPTFDYWGQGTQVTVSS”, “low polyreactivity”.
Then “QDQHVESGGGLVQAGGSLRLSCAAPGITFYPYDMGWYRQAPGKERELVASISRSGGSTYYADSVKGRFTISRDNAKNTVYLQMNSLKPEDTAVYYCNAYSTRGMYSWGQGTQVTVSS”, with “high polyreactivity”; and “QVQLQESGGGLVQAGGSLLSCAASGTISYYREMGCYRQAPGKERELVAGIGVGTITYYADSVKGRFTISRDNAKNTVYLQLNSLKPEDNAVYYCAAHIDGNDSHAYWGQGTQVTVSS”, with “low polyreactivity”.
As for “QVQLVESGGGLVQAGGSLRLSCAASGRTFTGYAMGWYRQAPGKERELVAAITRSGTRTYYADSVKGRFTISRDNAKNTVYLQMNSLKPEDTAVYYCAAADTQGVSMDYWGQGTQVTVSS”, the entry is “high polyreactivity”; as for “QVRLVESGGGLVQAGGSLRLSCAASGSIFSPYAMGWYRQAPGKERELVAALSYGVGNTYYADSVKGRFTISRDNAKNTVYLQMNSLKPEDTAVYYCAAEEYDYVYPHYFTKGYYWGQGTQVTVSS”, “high polyreactivity”; as for “QVQLVESGGGLVQAGGSLRLSCAASGNTFPAYAMGWYRQAPGTGGELVATISWSTGSTNYADSVKGRFTISRDNAKNTVYLQMNSLKPEDTAVYYCNKRYPSDQMDYWGQGTQVTVSS”, “low polyreactivity”.
“QVQLVESGGGLVQAGGSLRLSWAASGFTFDSNAMGWSRPAPGKEREVVAAISWSGASTYADSVKGRFTISRDNAKNTVYLQMNSLKPEDTAVYYCAADDEDVLFDYWGQGTQVTVSS”: the “polyreactivity (PSR sort gate)” value is “low polyreactivity”.
Then “QVQLVESGGGLVQAGGSLRLSCAASGFTYHVYAMGWYRQAPGKERELVAAISTGDDTTFYADSVKGRFTISRDNAKNTVYLQMNSLKPEDSAVYYCAAEYQVEYYYTTNFLTTYDYWGQGTQVTVSS”, with “low polyreactivity”; and “QVQLVESGGGLVQAGGSLRLSCAASGRNFRYYAMGWYRQAPGKERELVAAITTGSSTYYADSVKGRFTISRDNAKNTVYLQMNSLKPEDTAVYYCNVFQGTRYGYWGQGTQVTVSS”, with “low polyreactivity”.
As for “QVQLVESGGGLVQAGGSLRLSCAASGGIFSYAMGWYRQAPGKERELVAAISRSAGITYYADSVKGRFTISRDNAKNTVYLQMNSLKPEDTAVYYCAASYYSYLYYSWGQGTQVTVSS”, the entry is “high polyreactivity”; as for “QVQLVQSGGGLVQAGGSLRLSCAASGSTFRIYAMGWYRQAPGKEREFVAAISDRGGRTYYADSVKGRFTISRDNAKNTVYLQMNSLKPEDTAVYYCAAVKLLSSAPGDDCQMNYWGQGTQVTVSS”, “low polyreactivity”; as for “QVQLVESGGGLVQAGGSLRLICAASGLIFVSYAMGWSRQAPGKERELVAAITYGGDSTFYADSVKGRFTISRDNAKNTVYLQMNSLKPEDTAVYYCNADIWFIWHSFGWGYDYWGQGTQVTVSS”, “low polyreactivity”.
Then “QVQLVESGGGLVQAGGSLRLSSAASGFTFPVYAMGWYRPATGKESELVAAISRRGGRTYYADSVKGRFTISRDNAKNRVYLQMNCLKPEDSAVYYCNKGETLYGSVPYDYWGQGTQLTVSS”, with “high polyreactivity”; and “QVQLVESGGGLVQAGGSLRLSCAASGSTFYHYVMGWYRQAPGKERELGAAISWRGGRTYYADSVKGRFTISRDTAKNTVYLQMNSLKPEDTAVYYCARAYFQPSYYGVEYNYWGQGTQVTVSS”, with “high polyreactivity”; and “QVQLVESGGGLVQAGGSLRLSCAASGRTFYNYAMGWYRQAPGKERELVATINWSGGRTYYADSVKGRFTISRDNAKNTVYLQMNSLKAEDTAVYYCAKTWLYQSNEYGYWGQGTQVTVSS”, with “low polyreactivity”.
Take “QVPLVESGGGLVQAGGSLRLSCAASGFTFFSHAMGWYSQAPGKDRELVAAITTNGGSTYYADSVKGRFTISRDNAKNTVYVQITSLKPEDTAVYYCAADYSLPWSWLYEYWGQGTQVTVSS”: the “polyreactivity (PSR sort gate)” value is reported as “low polyreactivity”.
“QVQLVESGGGLVQAGGSLRLSCAASGITFFENAMGWYRQAPGKERELVAASSYSGGSTYYADSVKGRFTISRDNAKNTVYLQMYRLKPEDTAVYSCAADWYNFLYIRNRWGYGYWGQGSQVTVSS”: the “polyreactivity (PSR sort gate)” value is reported as “high polyreactivity”.
As for “QVQLVESGGGLVQAGGSLRLSCDASGRIFGMYAMGWYRQSPGKEREFVAAISWRTGSTYYADSVKGRFTISRDNAKNTVYLQMNSLKPEDTAVYYCAAESAAKYGYWRQGTQVTVSS”, the entry is “high polyreactivity”; as for “QVQLVESGGGLVQAGGSLRLSCAASGFTFTDNAMGRYRQAPGKERELVAAISEGSGITYYADSVKGRFTISRDNAKNTVYLQMNSLKPEDTAVYYCAADWLSKYDYWGQGTQVTVSS”, “low polyreactivity”; as for “QVQLVESGGGLVQAGGSLRLSCAASGSTFVGYVMGWSRQAPGKERELVAAITRSGTSTYYADSVKGRFTISRDNAKNTVYLQMNSLKPEDTAVYYCARRYVSSDYYYWGQGTQVTVSS”, “low polyreactivity”.
As for “QVQLVESGGGLVQAGGSLRLSCAASGSTFGFYAMGWYRQAPGKERELVAAITGSGGSTYYADSVKGRFTISRDNAKNTVYLQMNSLKPEDTAVYYCNRYGVRYYRYDYWGQGTQVTVSS”, the “polyreactivity (PSR sort gate)” value is recorded as “high polyreactivity”.
Turning to “QVQLLESGGGLVQAGGSLRLSCAASGSTFRWYAMGWYRQAPGRERELVAAITWSGGRTYYADSVKGRFTISRDNAKNTVYLQMNSLKPEYTAVYYCNAVYYHVVDFDYWGQGTQVTVSS”, the “polyreactivity (PSR sort gate)” value is on record as “high polyreactivity”.
As for “QVQLVESGGGLVQAGGSLRLSCAASGRIFNQYGMGWYRPAPGKERELVAAIRYGDSTNYADSVKGRFTISRDNAKNTVYLQMNSLKPEDTAVYYCARDPAGDYAGYDYWGQGTQVTVSS”, the entry is “low polyreactivity”; as for “QVQLVESGGGLVQAGGSLRLSCAASGSTFSGYTMGWYRQAPGKEREFVAAISVSGGSTYYADSVKGRFTISRDNAKNTVYLQMNSLKPEDTAVYYCNTVTSGFLSYDYWGQGTQVTVSS”, “high polyreactivity”.
As for “QVQLVESGGGLVQAGGSLRLICAASGSTIGGYVMGWYRQAPGKERELVAAISRSGASTYYADSVKGRFTISRDNAKNTVYLQMNSLKQEDTAVYYCAAYQARGMDYWGQGTQVTVSS”, the entry is “high polyreactivity”; as for “QVQLVESGGGLVQAGGSHRLSCAASGLTFDHYAMGWYRQAPGKERELVAAISRTGTRTYYADSVKERFTISRDNAKNTVYLQMNSLKPEDTAVYYCNAGTYWQGDSYDYWGQGTQVTVSS”, “low polyreactivity”; as for “QVQLVESGGGLVQAGGSLRLSCAASGNIFPDYAMGWYRQAPGKERELVAAISTSGSSTYYADSVKGRFTISRDNAKNNDYLQMNSLKPEDTAVYYCNAYRNADYVYWGQGTQVTVSS”, “low polyreactivity”.
As for “QVQLLESGGGLVQAGGSLRISCAASGSTFVSNAMGWYRQAPGKERELVAAISRSAGRTYYADSVKGRFTISRDTAKNTVYLQMTSLKPEDTAVYYCAARVVHCFGFWGQGTQVTVSS”, the entry is “high polyreactivity”.
As for “QVQLVESGGGLVQAGGSLRLSCAASGSIFEYYAMGWYRQAPGKERELVADITTIGGSTYYADSVKGRFTISRDNAKNTVYLQMNSLKPEDTAVYYCAADYFTTFYWYDYWGQGTQVTVSS”, the “polyreactivity (PSR sort gate)” value was “high polyreactivity”.
With “QVQLVESGGGLVQAGGSLRLSCAASGRTFIYYAMGWYRQAPGKERELVARIRANGVSTYYADSVKGRFTISRDNAKNTVYLQMNSLKPEDTAVYYCAKGYFPSQYEYWGQGTQVTVSS”, the “polyreactivity (PSR sort gate)” value was “high polyreactivity”.
As for “QVQLVESGGGLVQAGGSLRLSCAASGSIFFRYAMGWYRPAPGKERELVAAISSDGSTYYADSVKGRFTISRDNAKNTVYLQMNSLKPEDTAVYYCNAEQAIFYWYATVTYDYWGQGTQVTVSS”, the entry is “low polyreactivity”.
Turning to “QVQLVESGGGLVQAGASLRLSCAASGIIVHEYAMGWYRQAPGKERELVASISWNDGSTYADSVKGRFTISRDNAKITVYLQMNCLKPEDTAVYYCAADYPYYPFSSIYDYWGQGTQVTVSS”, the “polyreactivity (PSR sort gate)” value was “low polyreactivity”.
On to “QVQLVESGGGLVQAGGSLRLSCAASGRIFEVYDMGWYRKAPGKERELVAAISESDDNTYYADSVKGRFTISRDNAKNTVYLQMNSLKPEDTAVYYCNADVPGDTGWWGFDYWGQGTQVTVSS”, for which the “polyreactivity (PSR sort gate)” value was “low polyreactivity”.
In the case of “QVQLVESGGGLVQAGGSLRLSCAASGIIFGHYAMGWYRQAPGKERELVAAIRSSGGTTYYADSVKGRFTISRDNAKNTVYLQMNRLKPEDTAVYYCAKRGVHLYHDYYWGQGTQVTVSS”, the “polyreactivity (PSR sort gate)” value is “low polyreactivity”.
Then “QVQLVESGGGLVQAGGSLRISCAASGSIFPYNDMGWYRQAPGKERELVAVITSSGGSTYYADSVKGRFTISRDNAKNTVYLQMNSLKPEDTAVYYCAARGYNYYFGGYDYWGQGTQVTVSS”, with “low polyreactivity”; and “QVQLVESGGGLVQAGGSLRLSCAASGRIFSSYVMGLYRQAPGKERELVAAIRWSGGSTYYADSVKGRFTISRDNAKNTVYLQMNSLKPEDTAVYYCAAEVYRYYATGYGYWGQGTQVTVSS”, with “high polyreactivity”.
As for “QVQLVESGGGLVQAGGSLRLSCAASGRIFYWNAMGWYRQEPGKEREFVAAIRLSSGSTYYADSVKGRFTISRDNAKYTVYLQLNSLKPVDTAVYYCATRTYTYWGGSYPHFYWGQGTQVTVSS”, the entry is “high polyreactivity”.
